Residue numbers refer to the chain shown, from its start. Blank lines part the entries; values can stand above or below the binder they belong to.
Legend:
SAXS = molecular target: the molecule itself; assay: SAXS
eIF4G1_(1-249) = molecular target: T1, eIF4G1_(1-249) (S. cerevisiae, UniProt P39935 1-249); assay: NMR intermolecular paramagnetic relaxation enhancement
T1 sequence (looked up): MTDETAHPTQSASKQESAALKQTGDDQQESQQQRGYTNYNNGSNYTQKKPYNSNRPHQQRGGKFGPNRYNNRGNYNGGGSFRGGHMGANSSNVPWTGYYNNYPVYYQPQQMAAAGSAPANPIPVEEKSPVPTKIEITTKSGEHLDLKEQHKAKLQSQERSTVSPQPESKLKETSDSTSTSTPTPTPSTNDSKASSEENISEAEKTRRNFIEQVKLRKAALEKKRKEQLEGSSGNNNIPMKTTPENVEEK

B1: Pab1 RRM12 (domain or fragment)
chain: not shown
stoichiometry N (SAXS): 2

binding result (eIF4G1_(1-249)): binds
B2: spin-labeled eIF4G1_(1-249) Q109C (domain or fragment, S. cerevisiae, UniProt P39935 1-249, looked up)
chain: T1 sequence (looked up) with Q109C
modifications: 4-(2-iodoacetamido)-TEMPO nitroxyl spin label on C109

From publication doi:10.1101/2020.08.07.234443 (bioRxiv, 2020)
